In series [1] the target is AspT L60C mutant (three endogenous Cys replaced with alanine, then leucine 60 replaced with Cys) (Tetragenococcus halophilus) (UniProt Q8L3K8). Put plainly: cross-linking; spontaneous inter-molecular disulphide; purified protein (0.5 ug) in SDS sample buffer without 2-mercaptoethanol (non-reducing) or with 5% (reducing), 37°C 30 min; SDS-PAGE (Coomassie) and western blot with a His-tag antibody. (In general: A western blot detects proteins with antibodies after separation by electrophoresis.)

Series [2] concerns the molecule itself. The experiment in a line: SEC-MALS; purified AspT in DDM (2.4 mg/ml, dialysed); Superdex 200 Increase 10/300 GL; 20 mM HEPES-NaOH pH 7.0, 500 mM NaCl, 200 mM Asp-KOH, 0.01% DDM, 20% glycerol; 0.8 ml/min; MALS, RI and UV detectors.

“AspT L60C mutant (three endogenous Cys replaced with alanine, then leucine 60 replaced with Cys) (from UniProt Q8L3K8 1-543) (natural protein)”: the stoichiometry N (usually a count of units in the complex or per binding partner) in series [1] was 2.

B1: aspartate:alanine antiporter (AspT) of Tetragenococcus halophilus, wild type, histidine-tagged (natural protein, UniProt Q8L3K8 1-543, looked up)
chain: MNAIGNFLVGTPVFTIFICLALGYLLGKLKIGSFTLGATVGVLIVALLIGQLGVFPRDTLLGDIFFDFFMFAIGYRVGPSFISSMKKFGAKIVYATLIFLVSAFIVAYACFKMFHIGPGIAAGIIAGGLTQSAVIGSSLETISKLPISDHLKTLYSNQIPIVYTLTYVFGTIGVLIFLRDIMPKLMHIDLKKQAVKTAKELDMIPVPVIVASTHFYTINDGSSLIGQTLGTVNTKFAKGLVAAGLNDSADMASVINAGDVLAISGGIDEIGRAVQEFNLLEVTGKTKAYVSKQVVLKKNFSADVLKNAQDKGVLVATLAGDVMDPAQFSTLKPAESVTLVGQKDAVSEVQSQLGRLRAAENIINYSWFALGIALSAALGIVGTKVSGVPIALGGGTASLIVGLVQSIYRDKHAHMDTIPDSLLEFFQSIGLNLFIATVGLSAAKTFISAIQSMGISVLLIGAVISILPHIITFVICYYLMKMEPISIIGAQTGADTLSAALNDVSERVGSDASPFFAAAVAPAYAIGNIFLTLMGPIFIVLLS
notes: aspartate:alanine antiporter AspT, Tetragenococcus halophilus, 543 amino-acid residues (57.2 kDa); expressed from the asp operon in pTrc99A (pTrcAspD/T-His); also called AspT WT; WT; source: Ni Sepharose Excel and SEC for the comparison with L60C; not shown: His6, internal (in loop 5), kept
On to B1, for which the “stoichiometry N” value in series [2] was determined as 2.

(Values after article PMC9527358, “Oligomeric state of the aspartate:alanine transporter from Tetragenococcus halophilus” (Journal of Biochemistry, 2022).)
